Earlier results, collected in publication PMC5221605.

Experiments:
Fibrin (Homo sapiens) = Fibrin (Homo sapiens) (UniProt P02671)
[1] = molecular target: Fibrinogen (Homo sapiens) (UniProt P02671)
[2] = molecular target: Fibrinogen Aα-chain 561-575 (Homo sapiens) (UniProt P02671)

UniProt P02671, sequence (P02671 36-866, chain 1 of 3): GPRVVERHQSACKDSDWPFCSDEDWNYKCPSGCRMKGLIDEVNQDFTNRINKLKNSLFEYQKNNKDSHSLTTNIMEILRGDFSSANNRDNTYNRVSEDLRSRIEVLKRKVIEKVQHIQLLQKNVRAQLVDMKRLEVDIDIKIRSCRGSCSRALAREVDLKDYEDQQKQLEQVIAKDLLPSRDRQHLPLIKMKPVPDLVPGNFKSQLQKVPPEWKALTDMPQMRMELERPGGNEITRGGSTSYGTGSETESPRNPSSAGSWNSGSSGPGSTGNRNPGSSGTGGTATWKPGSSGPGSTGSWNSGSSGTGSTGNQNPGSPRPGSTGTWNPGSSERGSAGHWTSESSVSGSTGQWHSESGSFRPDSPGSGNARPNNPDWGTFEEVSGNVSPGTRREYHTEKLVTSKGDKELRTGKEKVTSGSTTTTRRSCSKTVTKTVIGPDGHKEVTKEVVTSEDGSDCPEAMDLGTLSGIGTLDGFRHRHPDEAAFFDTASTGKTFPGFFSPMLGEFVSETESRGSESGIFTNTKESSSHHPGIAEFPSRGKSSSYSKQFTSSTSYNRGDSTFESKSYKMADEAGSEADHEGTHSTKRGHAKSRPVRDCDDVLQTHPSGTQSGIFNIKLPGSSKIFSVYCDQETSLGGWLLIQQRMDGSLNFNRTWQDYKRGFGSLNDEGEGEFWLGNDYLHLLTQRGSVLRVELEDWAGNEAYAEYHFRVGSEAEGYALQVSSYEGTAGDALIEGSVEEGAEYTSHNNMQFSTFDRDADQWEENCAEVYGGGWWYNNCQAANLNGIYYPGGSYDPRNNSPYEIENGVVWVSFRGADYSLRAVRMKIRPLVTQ
UniProt P02671, sequence (P02675 45-491, chain 2 of 3, further chain): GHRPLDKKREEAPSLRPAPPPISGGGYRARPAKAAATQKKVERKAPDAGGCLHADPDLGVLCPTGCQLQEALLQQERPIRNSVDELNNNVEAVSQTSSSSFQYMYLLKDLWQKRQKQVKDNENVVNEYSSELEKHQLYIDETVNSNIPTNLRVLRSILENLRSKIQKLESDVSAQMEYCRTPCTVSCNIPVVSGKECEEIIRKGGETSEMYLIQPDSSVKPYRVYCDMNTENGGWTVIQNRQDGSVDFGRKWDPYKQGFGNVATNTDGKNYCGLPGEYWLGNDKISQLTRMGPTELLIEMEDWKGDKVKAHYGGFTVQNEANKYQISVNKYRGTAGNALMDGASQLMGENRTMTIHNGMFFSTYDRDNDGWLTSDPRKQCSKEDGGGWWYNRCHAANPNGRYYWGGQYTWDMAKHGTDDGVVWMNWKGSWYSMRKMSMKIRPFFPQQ
UniProt P02671, sequence (P02679 27-453, chain 3 of 3, further chain): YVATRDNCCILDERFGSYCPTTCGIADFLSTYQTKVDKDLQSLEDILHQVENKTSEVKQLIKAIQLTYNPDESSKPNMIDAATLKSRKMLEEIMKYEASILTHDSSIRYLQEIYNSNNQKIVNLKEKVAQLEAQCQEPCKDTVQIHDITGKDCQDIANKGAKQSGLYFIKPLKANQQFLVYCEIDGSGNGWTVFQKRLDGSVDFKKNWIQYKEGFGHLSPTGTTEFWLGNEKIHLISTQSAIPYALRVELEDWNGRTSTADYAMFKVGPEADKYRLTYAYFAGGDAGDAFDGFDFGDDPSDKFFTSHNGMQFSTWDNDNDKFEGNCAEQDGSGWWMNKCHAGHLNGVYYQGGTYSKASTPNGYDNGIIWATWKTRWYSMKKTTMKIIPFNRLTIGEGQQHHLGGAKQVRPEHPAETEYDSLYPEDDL

Substance	Kd (Fibrin (Homo sapiens))	Kd [1]	Kd [2]
ClfA (from UniProt Q2G015)	500 nM	500 nM	
Bbp N2-N3 (from UniProt Q6GJA6)			500 nM
